Entries after “also recorded” stand apart in the source; their conditions may differ.
How the values were obtained:
uPARAP = biological target: T1, uPARAP (Homo sapiens, UniProt Q9UBG0); assay: Western blotting of MG63 cell lysate; format: binding; design: endogenous in cells; host or cells: MG63 human osteosarcoma cells; details: detergent lysate of uPARAP-positive MG63 human osteosarcoma cells
T1 sequence (Q9UBG0 31-1479): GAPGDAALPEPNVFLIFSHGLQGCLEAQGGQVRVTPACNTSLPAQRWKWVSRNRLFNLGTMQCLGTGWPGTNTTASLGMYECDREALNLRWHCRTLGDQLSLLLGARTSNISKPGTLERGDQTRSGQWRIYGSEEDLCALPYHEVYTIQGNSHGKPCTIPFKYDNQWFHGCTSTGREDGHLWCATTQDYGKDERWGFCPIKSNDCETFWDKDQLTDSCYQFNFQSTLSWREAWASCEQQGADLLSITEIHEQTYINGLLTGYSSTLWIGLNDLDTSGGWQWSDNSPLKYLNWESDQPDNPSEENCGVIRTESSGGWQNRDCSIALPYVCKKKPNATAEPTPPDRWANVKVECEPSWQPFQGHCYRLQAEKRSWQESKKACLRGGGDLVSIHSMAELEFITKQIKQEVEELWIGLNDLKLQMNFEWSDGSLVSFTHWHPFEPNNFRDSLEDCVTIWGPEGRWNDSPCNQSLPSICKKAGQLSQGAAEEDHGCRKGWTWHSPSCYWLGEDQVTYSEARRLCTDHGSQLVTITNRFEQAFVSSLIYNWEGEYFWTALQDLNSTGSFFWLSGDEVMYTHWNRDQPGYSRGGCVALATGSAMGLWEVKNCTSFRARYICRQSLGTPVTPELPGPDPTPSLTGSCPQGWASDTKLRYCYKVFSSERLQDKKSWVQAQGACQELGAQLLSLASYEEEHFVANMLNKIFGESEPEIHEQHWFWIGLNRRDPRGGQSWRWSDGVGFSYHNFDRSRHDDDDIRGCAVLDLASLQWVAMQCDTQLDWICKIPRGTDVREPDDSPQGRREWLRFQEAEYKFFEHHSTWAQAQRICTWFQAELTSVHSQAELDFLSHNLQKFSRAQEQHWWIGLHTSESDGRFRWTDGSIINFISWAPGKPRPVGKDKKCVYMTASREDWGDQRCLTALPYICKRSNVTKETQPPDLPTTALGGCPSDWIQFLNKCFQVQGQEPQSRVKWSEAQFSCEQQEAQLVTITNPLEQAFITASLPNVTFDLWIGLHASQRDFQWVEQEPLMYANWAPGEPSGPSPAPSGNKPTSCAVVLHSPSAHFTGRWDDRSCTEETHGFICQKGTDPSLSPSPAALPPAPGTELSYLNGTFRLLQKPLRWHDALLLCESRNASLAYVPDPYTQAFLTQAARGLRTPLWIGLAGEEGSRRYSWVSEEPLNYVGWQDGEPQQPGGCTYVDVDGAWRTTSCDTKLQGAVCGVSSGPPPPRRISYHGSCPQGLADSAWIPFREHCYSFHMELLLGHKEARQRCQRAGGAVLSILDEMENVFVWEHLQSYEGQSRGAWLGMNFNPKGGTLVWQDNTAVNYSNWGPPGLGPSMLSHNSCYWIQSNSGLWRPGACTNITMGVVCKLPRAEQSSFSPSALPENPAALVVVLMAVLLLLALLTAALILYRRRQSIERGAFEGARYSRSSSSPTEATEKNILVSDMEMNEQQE
Experimental: For Western blotting, a detergent cell lysate prepared from uPARAP-positive MG63 human osteosarcoma cells was analyzed, using identical concentrations of “2h9 cloned” and “2h9 original” as the primary antibodies. […] No reaction is seen in the absence of primary antibody (negative control).

mouse uPARAP = biological target: T2, mouse uPARAP (Mus musculus, UniProt Q64449); assay: Antibody reactivity with uPARAP; format: binding; details: listed as 2h9
T2 sequence (Q64449 31-1479): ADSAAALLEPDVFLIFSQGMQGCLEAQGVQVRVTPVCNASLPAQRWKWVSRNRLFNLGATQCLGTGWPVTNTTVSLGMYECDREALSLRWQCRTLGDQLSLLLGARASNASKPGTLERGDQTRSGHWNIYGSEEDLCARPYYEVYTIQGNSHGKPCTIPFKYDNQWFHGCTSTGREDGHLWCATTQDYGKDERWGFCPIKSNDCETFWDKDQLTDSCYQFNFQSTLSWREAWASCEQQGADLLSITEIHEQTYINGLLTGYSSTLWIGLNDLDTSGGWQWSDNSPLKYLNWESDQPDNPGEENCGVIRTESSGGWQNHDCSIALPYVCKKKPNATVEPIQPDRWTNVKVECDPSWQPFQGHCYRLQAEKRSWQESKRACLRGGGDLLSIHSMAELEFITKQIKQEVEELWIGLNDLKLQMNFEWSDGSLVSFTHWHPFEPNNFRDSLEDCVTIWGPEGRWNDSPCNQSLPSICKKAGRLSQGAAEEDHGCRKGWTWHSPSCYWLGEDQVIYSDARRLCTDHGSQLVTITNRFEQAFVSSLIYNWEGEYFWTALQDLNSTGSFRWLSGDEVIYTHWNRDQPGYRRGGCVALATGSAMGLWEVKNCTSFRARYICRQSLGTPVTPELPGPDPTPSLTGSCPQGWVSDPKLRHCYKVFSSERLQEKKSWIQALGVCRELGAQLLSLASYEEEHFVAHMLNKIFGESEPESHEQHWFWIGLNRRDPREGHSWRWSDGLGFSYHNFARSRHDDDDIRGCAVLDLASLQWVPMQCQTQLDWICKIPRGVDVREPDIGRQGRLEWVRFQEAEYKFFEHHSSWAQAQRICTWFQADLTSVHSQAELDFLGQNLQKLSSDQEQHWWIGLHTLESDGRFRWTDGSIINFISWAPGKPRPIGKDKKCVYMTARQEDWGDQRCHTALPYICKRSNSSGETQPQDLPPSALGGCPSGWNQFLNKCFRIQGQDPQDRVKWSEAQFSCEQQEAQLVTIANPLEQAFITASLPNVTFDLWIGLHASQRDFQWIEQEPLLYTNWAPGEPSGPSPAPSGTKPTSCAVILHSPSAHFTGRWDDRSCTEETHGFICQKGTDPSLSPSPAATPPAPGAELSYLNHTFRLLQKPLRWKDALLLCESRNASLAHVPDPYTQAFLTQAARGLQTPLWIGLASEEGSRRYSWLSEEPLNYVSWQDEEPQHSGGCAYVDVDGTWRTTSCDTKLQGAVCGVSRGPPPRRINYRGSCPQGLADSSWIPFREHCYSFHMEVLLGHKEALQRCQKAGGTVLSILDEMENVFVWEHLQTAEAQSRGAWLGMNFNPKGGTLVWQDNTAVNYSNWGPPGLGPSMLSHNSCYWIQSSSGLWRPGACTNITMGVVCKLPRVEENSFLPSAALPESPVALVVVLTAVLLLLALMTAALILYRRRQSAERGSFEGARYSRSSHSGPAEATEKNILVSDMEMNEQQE

B1: mAb 2h9: mouse monoclonal IgG1k anti-uPARAP antibody clone 2.h.9: F12, produced by hybridoma cell culture (protein)
light: DIQMTQSPASQSASLGESVTITCLASQTIGTWLAWYQQKPGKSPQLLIYAATTLTDGVPSRFSGAGSGTKFSLKISSLQAEDFASYFCQEFFSTPFTFGSGTKLELKRADAAPTVSIFPPSSEQLTSGGASVVCFLNNFYPKDINVKWKIDGGERQNGVLNSWTDQDSKDSTYSMSSTLTLTKDEYERHNSYTCEATHKTSTSPIVKSFNRNEC
heavy: QVQLQQPGTELVRPGLSVKLSCKASGYTFTSYWMNWVKQRPGQGLEWIGMIHPSNDEKRINQKFKDKATLTVDKFSSTVYMQVSSPTSEDSAVYYCARGGGDYVGDYALDFWGQGTSVTVSSAKTTPPSVYPLAPGSAAQTNSMVTLGCLVKGYFPEPVTVTWNSGSLSSGVHTFPAVLQSDLYTLSSSVTVPSSTWPSETVTCNVAHPASSTKVDKKIVPRDCGCKPCICTVPEVSSVFIFPPKPKDVLTITLTPKVTCVVVDISKDDPEVQFSWFVDDVEVHTAQTQPREEQFNSTFRSVSELPIMHQDWLNGKEFKCRVNSAAFPAPIEKTISKTKGRPKAPQVYTIPPPKEQMAKDKVSLTCMITDFFPEDITVEWQWNGQPAENYKNTQPIMDTDGSYFIYSKLNVQKSNWEAGNTFTCSVLHEGLHNHHTEKSLSHSPGK
Reactivity in Western blotting (uPARAP): react specifically with the uPARAP protein | Reactivity with mouse uPARAP (mouse uPARAP): reactive against both human and murine uPARAP; also recorded: reacts with both human and mouse uPARAP
